# Assay results published in patent US20200283508A1 (TEXAS A AND M UNIVERSITY SYSTEM, published 2020).
# T1: Coa-R0474-505 (recombinant protein) (Staphylococcus aureus strain Newman)
# T1 chain: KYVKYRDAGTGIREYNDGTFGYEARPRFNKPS
# T2: Efb-N30-105 (Staphylococcus aureus strain Newman, UniProt A6QG59 30-105)
# T2 sequence: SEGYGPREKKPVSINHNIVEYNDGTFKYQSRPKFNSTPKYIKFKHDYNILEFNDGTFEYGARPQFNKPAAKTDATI
# B1: LIG40-A11 (scFv, V domains shown)
# VH: QVQLVESGGVVVQPGGSLRLSCAASGFTFDDYAMHWVRQAPGKGLEWVSLISWDGGSTYYADSVKGRFTISRDNSKNSLYLQMNSLRAEDTALYYCVAARRGMDVWGQGTTVTVSS
# VL: KIVLTQSPLSLPVTPGEPASISCRSSQSLLYSNGNNYLDWYLQKPGQSPQLLIYLGSNRAPGVPDRFSGSGSGTDFTLRISRVEAEDVGVYYCMQGRQPPFTFGPGTKVDIK
# notes: also called anti-CoaR scFv-Fc antibody
# Assays:
# BSA = target: T3, BSA (bovine, UniProt P02769 25-607); assay: solid-phase binding assay (FIG. 24)
# T3 construct: also called bovine serum albumin
# T3 sequence (P02769 25-607 limits assumed): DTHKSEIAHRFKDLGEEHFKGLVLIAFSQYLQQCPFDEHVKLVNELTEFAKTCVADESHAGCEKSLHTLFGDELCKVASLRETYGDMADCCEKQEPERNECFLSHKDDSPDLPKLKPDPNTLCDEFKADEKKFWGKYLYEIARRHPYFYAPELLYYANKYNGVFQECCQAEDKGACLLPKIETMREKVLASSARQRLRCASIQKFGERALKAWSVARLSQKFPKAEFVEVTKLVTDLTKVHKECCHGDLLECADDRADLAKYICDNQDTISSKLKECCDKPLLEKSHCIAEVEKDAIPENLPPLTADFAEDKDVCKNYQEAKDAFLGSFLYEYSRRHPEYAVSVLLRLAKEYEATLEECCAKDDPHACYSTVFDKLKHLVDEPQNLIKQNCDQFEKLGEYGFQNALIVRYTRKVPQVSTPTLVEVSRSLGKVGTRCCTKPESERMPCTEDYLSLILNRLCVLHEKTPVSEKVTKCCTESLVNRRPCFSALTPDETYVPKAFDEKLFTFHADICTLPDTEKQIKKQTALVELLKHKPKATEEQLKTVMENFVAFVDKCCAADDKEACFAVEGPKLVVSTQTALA
# Coa-C (Coa 311-636) [1] = target: T4, Coa-C (Coa 311-636) (Staphylococcus aureus strain Newman, UniProt P08515 1-218 = GST); assay: apparent Kd from half-maximal binding in ELISA (GraphPad Prism)
# T4 construct: also called rCoa-C; Coa-C311-636
# Method: As well, binding was tested against Coa fragments, namely Coa-C₃₁₁₋₆₃₆, Coa-F₃₁₁₋₅₀₅, Coa-R0₄₇₄₋₅₀₅ and Coa-R₅₀₆₋₆₃₆. Recombinant proteins Efb-N₃₀₋₁₀₅, Efb-A₃₀₋₆₇, Efb-O₆₈₋₉₈, Coa-C₃₁₁₋₆₃₆, Coa-F₃₁₁₋₅₀₅, Coa-R0₄₇₄₋₅₀₅ and Coa-R₅₀₆₋₆₃₆ were diluted in 50 mM sodium carbonate pH 9.6 and immobilized at the concentration of 200 ng/well for 1 hour at room temperature. Immobilized proteins were probed for recognition in a solid-phase binding assay with different quantities of LIG40 antibodies after blocking and washing. After washing, varying concentrations of LIG40 scFv-Fc antibodies were diluted in 2% BSA+1×PBS+0.05% Tween-20 and incubated with the immobilized proteins for 1 hour at room temperature with shaking at 250 rpm. Bound scFv-Fcs were detected using polyclonal α-human IgG HRP-conjugated Ab diluted to 1:10000 in 2% BSA+1×PBS+0.05% Tween-20. HRP-conjugated Ab was incubated for 1 hour at room temperature with shaking at 250 rpm. HRP signal was developed with Sigma FAST-OPD using manufacturers guidelines.
# Coa-C (Coa 311-636) [2] = target: T4, Coa-C (Coa 311-636)
# Coa-R (Coa 506-636) [3] = target: T5, Coa-R (Coa 506-636) (Staphylococcus aureus strain Newman)
# [4] = target: T1, Coa-R0474-505 (recombinant protein); assay: solid-phase binding assay, titration (FIG. 24); ND in FIG. 27
# [5] = target: T6, synthetic peptide Coa-RI (Coa 506-532) (Staphylococcus aureus strain Newman); assay: peptide inhibition ELISA; appreciable inhibition only above 100 µM peptide
# T6 construct: also called sCoa-RI
# Coa-R (Coa 506-636) [6] = target: T5, Coa-R (Coa 506-636); assay: blocking ELISA: scFv-Fc pre-incubated with 10 nM CoaR, residual binding to coated Fg (blocked ligand: Fg)
# Efb-N30-105 = target: T2, Efb-N30-105; assay: solid-phase binding assay, titration (FIG. 24)
# Efb-A30-67 = Efb-A30-67 (Staphylococcus aureus strain Newman, UniProt P08515 1-218 = GST; A6QG59 30-67); assay: solid-phase binding assay, titration (FIG. 24)
# [7] = target: recombinant Efb-O (Efb 68-98) (Staphylococcus aureus strain Newman, UniProt P08515 1-218 = GST); assay: solid-phase binding assay, titration (FIG. 24)
binder,measurement,setting,value
B1,binding result,BSA,no binding
same,Kd,Coa-C (Coa 311-636) [1],0.133 nM
same,EC50 (read off the curve),Coa-C (Coa 311-636) [2],~0.02 µg/mL
same,EC50 (read off the curve),Coa-R (Coa 506-636) [3],~0.008 µg/mL
same,binding result,[4],no binding
same,binding result,[5],binds
same,IC50 (read off the curve),Coa-R (Coa 506-636) [6],~3 µg/mL
same,binding result,Efb-N30-105,no binding
same,binding result,Efb-A30-67,no binding
same,binding result,[7],no binding
